In publication PMC7474084:

Molecular target: Echovirus 30 (E30) mature virion (F-particle) (Echovirus 30)
Assay: SPR; BIAcore T100; […]; PBS with 0.05% Tween-20, 25 °C; global fit

| Substance | Kd [nM] |
| --- | --- |
| human CD55, extracellular domain (receptor) | 2000 |
| human FcRn, extracellular domain (from UniProt P55899 24-297; P61769 21-119) (receptor) | 2000 |
